According to PMC12445078, “Structure-guided engineering of an aromatic ring-hydroxylating dioxygenase for broad-spectrum phthalate degradation” (Journal of Bacteriology, 2025):

Columns and labels:
[1] = target: isophthalate dioxygenase from Comamonas testosteroni KF1 (IPDOKF1) (Comamonas testosteroni KF1); assay: SEC; gel filtration on a Superdex 200 column; peaks at 62 mL (trimer, ~150 kDa) and 73 mL (monomer, ~50 kDa)
[2] = target: isophthalate dioxygenase from Comamonas testosteroni KF1 (IPDOKF1) (Comamonas testosteroni KF1); assay: crystal structure; apo IPDOKF1 at 2.96 Å and isophthalate complex at 3.3 Å, space group P 2_(1) 3, one monomer per asymmetric unit; the trimer arises by the threefold axis
[3] = target: T1, IPDOKF1 (isophthalate dioxygenase, IPDO) (Comamonas testosteroni, UniProt B7WRK8); assay: X-ray co-crystal structure, […] Å; assay type: binding; conditions: co-crystallized with 5 mM isophthalate, 0.1 M Tris-HCl pH 7.0; active site near mononuclear iron
T1 construct: gene CtesDRAFT_PD2139; 424 residues per protomer; ~50 kDa monomer, ~150 kDa trimer; primers encode N-terminus MNKEMSE and C-terminus PVFSL; Rieske [2Fe-2S]; C69/H71/C88/H91, Fe H177/H182/D337; assayed with separate reductase IPDRKF1
T1 sequence (B7WRK8 1-424): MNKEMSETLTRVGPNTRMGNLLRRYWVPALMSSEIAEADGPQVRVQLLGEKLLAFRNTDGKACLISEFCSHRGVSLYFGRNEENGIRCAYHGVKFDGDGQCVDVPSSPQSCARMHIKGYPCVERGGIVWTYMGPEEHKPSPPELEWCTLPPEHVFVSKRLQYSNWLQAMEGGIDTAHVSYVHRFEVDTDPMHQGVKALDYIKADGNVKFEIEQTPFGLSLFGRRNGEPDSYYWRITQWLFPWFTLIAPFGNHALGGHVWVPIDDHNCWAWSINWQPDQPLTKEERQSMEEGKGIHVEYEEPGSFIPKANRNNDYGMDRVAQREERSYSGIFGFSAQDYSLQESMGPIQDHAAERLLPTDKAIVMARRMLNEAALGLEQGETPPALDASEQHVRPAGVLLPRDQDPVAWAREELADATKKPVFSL

[4] = substrate: O=C(O)c1cccc(C(=O)O)c1; assay: purified protein; conditions: with reductase IPDRKF1, 1 mM NAD(P)H, 100 µM Fe(NH4)2(SO4)2, air-saturated 50 mM Tris, 25 °C, pH 7.5 in table footnote but pH 8.0 in methods
[5] = substrate: O=C(O)c1ccc(C(=O)O)cc1; assay: O2 consumption, Clark-type oxygen electrode; assay type: biochemical, Comamonas testosteroni; conditions: with reductase IPDRKF1, 1 mM NAD(P)H, 100 µM Fe(NH4)2(SO4)2, air-saturated 50 mM Tris, 25 °C, pH 7.5 in table footnote but pH 8.0 in methods
[6] = substrate: O=C(O)c1ccccc1C(=O)O; assay: O2 consumption, Clark-type oxygen electrode; assay type: biochemical, Comamonas testosteroni; conditions: with reductase IPDRKF1, 1 mM NAD(P)H, 100 µM Fe(NH4)2(SO4)2, air-saturated 50 mM Tris, 25 °C, pH 7.5 in table footnote but pH 8.0 in methods

## isophthalate dioxygenase from Comamonas testosteroni KF1 (IPDOKF1) (enzyme)
[1]
  stoichiometry N: 3
[2]
  stoichiometry N: 3

## O=C(O)c1cccc(C(=O)O)c1 [IPA, isophthalate]
[3]
  X-ray co-crystal structure, 3.3 Å: co-crystallized IPDOKF1 with its substrate and determined the structure of the isophthalate-bound complex

B1: IPDOKF1 (isophthalate dioxygenase, IPDO) (Comamonas testosteroni KF-1) (protein)
chain: MNKEMSETLTRVGPNTRMGNLLRRYWVPALMSSEIAEADGPQVRVQLLGEKLLAFRNTDGKACLISEFCSHRGVSLYFGRNEENGIRCAYHGVKFDGDGQCVDVPSSPQSCARMHIKGYPCVERGGIVWTYMGPEEHKPSPPELEWCTLPPEHVFVSKRLQYSNWLQAMEGGIDTAHVSYVHRFEVDTDPMHQGVKALDYIKADGNVKFEIEQTPFGLSLFGRRNGEPDSYYWRITQWLFPWFTLIAPFGNHALGGHVWVPIDDHNCWAWSINWQPDQPLTKEERQSMEEGKGIHVEYEEPGSFIPKANRNNDYGMDRVAQREERSYSGIFGFSAQDYSLQESMGPIQDHAAERLLPTDKAIVMARRMLNEAALGLEQGETPPALDASEQHVRPAGVLLPRDQDPVAWAREELADATKKPVFSL
[4]
  Km: 31 ± 7 µM
  kcat: 4.9 s⁻¹
  kcat/Km: 160000 M⁻¹ s⁻¹

B2: IPDOKF1 (isophthalate dioxygenase, IPDO) (Comamonas testosteroni KF-1; F249H/V178A) (protein)
chain: MNKEMSETLTRVGPNTRMGNLLRRYWVPALMSSEIAEADGPQVRVQLLGEKLLAFRNTDGKACLISEFCSHRGVSLYFGRNEENGIRCAYHGVKFDGDGQCVDVPSSPQSCARMHIKGYPCVERGGIVWTYMGPEEHKPSPPELEWCTLPPEHVFVSKRLQYSNWLQAMEGGIDTAHASYVHRFEVDTDPMHQGVKALDYIKADGNVKFEIEQTPFGLSLFGRRNGEPDSYYWRITQWLFPWFTLIAPHGNHALGGHVWVPIDDHNCWAWSINWQPDQPLTKEERQSMEEGKGIHVEYEEPGSFIPKANRNNDYGMDRVAQREERSYSGIFGFSAQDYSLQESMGPIQDHAAERLLPTDKAIVMARRMLNEAALGLEQGETPPALDASEQHVRPAGVLLPRDQDPVAWAREELADATKKPVFSL
notes: 424 residues per protomer; ~50 kDa monomer, ~150 kDa trimer; primers encode N-terminus MNKEMSE and C-terminus PVFSL; Rieske [2Fe-2S]; C69/H71/C88/H91, Fe H177/H182/D337; assayed with separate reductase IPDRKF1
[4]
  Km: 32 ± 8 µM
  kcat: 4.8 s⁻¹
  kcat/Km: 148000 M⁻¹ s⁻¹
[5]
  Km: 95 ± 11 µM
  kcat: 4.9 ± 0.2 s⁻¹
  kcat/Km: 51000 ± 6000 M⁻¹ s⁻¹
[6]
  Km: 91 ± 16 µM
  kcat: 4 ± 0.2 s⁻¹
  kcat/Km: 44000 ± 8000 M⁻¹ s⁻¹
